The values below come from the supplement of paper PMC9112550, “Optimization of the antimicrobial peptide Bac7 by deep mutational scanning” (BMC Biology, 2022).
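Further: peptides expressed intracellularly from a pBAD plasmid library in pooled LB shake-flask culture, induced with 0.3% L-arabinose, DNA abundance read by NGS, three biological replicates, DESeq2 with apeglm shrinkage.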

In this series the test system is Escherichia coli TOP10. Description: shrunken log2 fold change of peptide-encoding DNA abundance (4.5 h post-induction vs induction); higher = less antimicrobial activity (less host growth inhibition). The conditions noted are these: time post-induction: 4.5 h; library: site-saturation at positions 5, 18, 19, 20.
Take RRIRMRPPRLPRPRPRPGKHPRP: the “shrunken log2 fold change” value came to 4.3.

In the case of RRIRVRPPRLPRPRPRPTPRPRP, the “shrunken log2 fold change” value stood at 0.859.

RRIRQRPPRLPRPRPRPGLPPRP: the “shrunken log2 fold change” value worked out at 0.242. With RRIRPRPPRLPRPRPRPIKAPRP, the “shrunken log2 fold change” value was -0.00863. Then RRIRRRPPRLPRPRPRPNIWPRP, with 0.134.

As for RRIRERPPRLPRPRPRPHLRPRP, the “shrunken log2 fold change” value was -0.173. Then RRIRMRPPRLPRPRPRPWDDPRP, with 0.533.

Consider RRIRARPPRLPRPRPRPRFWPRP, for which the “shrunken log2 fold change” value is 0.691. Take RRIRRRPPRLPRPRPRPIVWPRP: the “shrunken log2 fold change” value worked out at 0.0811. To RRIRHRPPRLPRPRPRPNYTPRP belongs -0.529; to RRIRLRPPRLPRPRPRPLVPPRP, -0.258. To RRIRRRPPRLPRPRPRPFWHPRP belongs -0.0292.

As for RRIRFRPPRLPRPRPRPVPYPRP, the “shrunken log2 fold change” value is -0.693. To RRIRPRPPRLPRPRPRPMSAPRP belongs 0.0743. Then RRIRNRPPRLPRPRPRPEELPRP, with 0.678; and RRIRCRPPRLPRPRPRPPEKPRP, with 0.299; and RRIRRRPPRLPRPRPRPHPFPRP, with 0.116. To RRIRLRPPRLPRPRPRPDFGPRP belongs 0.153; to RRIRQRPPRLPRPRPRPDVTPRP, 0.143; to RRIRNRPPRLPRPRPRPPRNPRP, 0.196. In the case of RRIRYRPPRLPRPRPRPTTWPRP, the “shrunken log2 fold change” value is -0.358. Consider RRIRPRPPRLPRPRPRPPIVPRP, for which the “shrunken log2 fold change” value came out at 0.161. Then RRIRYRPPRLPRPRPRPEAVPRP, with 0.0685; and RRIRHRPPRLPRPRPRPFSRPRP, with -0.0618; and RRIRIRPPRLPRPRPRPHEVPRP, with -0.0624. Then RRIRYRPPRLPRPRPRPGVAPRP, with 0.182; and RRIRYRPPRLPRPRPRPTCTPRP, with -0.229; and RRIRQRPPRLPRPRPRPKQCPRP, with -0.288. Then RRIRTRPPRLPRPRPRPREWPRP, with 0.259.

Take RRIRSRPPRLPRPRPRPDAMPRP: the “shrunken log2 fold change” value turned out to be 0.83. To RRIRIRPPRLPRPRPRPGNVPRP belongs -0.0399. Then RRIRCRPPRLPRPRPRPPLMPRP, with 0.121; and RRIRYRPPRLPRPRPRPTFNPRP, with -0.73; and RRIRGRPPRLPRPRPRPCKEPRP, with -0.0407. In the case of RRIRSRPPRLPRPRPRPGQWPRP, the “shrunken log2 fold change” value was -0.0109.

On to RRIRNRPPRLPRPRPRPNTHPRP, for which the “shrunken log2 fold change” value was -0.584. To RRIRLRPPRLPRPRPRPAPFPRP belongs -0.0923; to RRIRLRPPRLPRPRPRPDMLPRP, -0.125; to RRIRFRPPRLPRPRPRPIVAPRP, -0.112. As to RRIRVRPPRLPRPRPRPARIPRP, the “shrunken log2 fold change” value turned out to be 0.149. To RRIRDRPPRLPRPRPRPQMLPRP belongs 0.269; to RRIRNRPPRLPRPRPRPQDLPRP, -0.11; to RRIRIRPPRLPRPRPRPLQNPRP, -0.359. Then RRIRSRPPRLPRPRPRPQSKPRP, with -0.0711; and RRIRARPPRLPRPRPRPLADPRP, with 0.42; and RRIRCRPPRLPRPRPRPGMSPRP, with 0.0961. Then RRIRKRPPRLPRPRPRPYTNPRP, with -0.21; and RRIRQRPPRLPRPRPRPLDKPRP, with 2.19; and RRIRRRPPRLPRPRPRPQDAPRP, with 0.427.

Regarding RRIRWRPPRLPRPRPRPSMFPRP, the “shrunken log2 fold change” value was -0.0441. To RRIRFRPPRLPRPRPRPQVVPRP belongs -0.152; to RRIRERPPRLPRPRPRPEMQPRP, -0.0367; to RRIRDRPPRLPRPRPRPKFPPRP, -0.237. As to RRIRIRPPRLPRPRPRPGECPRP, the “shrunken log2 fold change” value was -0.143. Then RRIRSRPPRLPRPRPRPCKPPRP, with -0.173; and RRIRRRPPRLPRPRPRPLIFPRP, with -0.00389; and RRIRSRPPRLPRPRPRPTCLPRP, with -0.117. To RRIRARPPRLPRPRPRPYVCPRP belongs -0.255; to RRIRARPPRLPRPRPRPIDRPRP, -0.027. Then RRIRYRPPRLPRPRPRPYGVPRP, with -0.00992; and RRIRLRPPRLPRPRPRPEHGPRP, with 0.00489; and RRIRPRPPRLPRPRPRPLQCPRP, with -1.25. Regarding RRIRRRPPRLPRPRPRPTAKPRP, the “shrunken log2 fold change” value was found to be 0.371.

Take RRIRGRPPRLPRPRPRPATDPRP: the “shrunken log2 fold change” value was found to be 0.531. To RRIRERPPRLPRPRPRPKDSPRP belongs -0.212; to RRIRLRPPRLPRPRPRPPFRPRP, 0.526.

Take RRIRMRPPRLPRPRPRPWRPPRP: the “shrunken log2 fold change” value was 0.308. To RRIRLRPPRLPRPRPRPEAPPRP belongs 0.462; to RRIRLRPPRLPRPRPRPPTRPRP, 0.677; to RRIRARPPRLPRPRPRPANMPRP, -0.0999. Then RRIRHRPPRLPRPRPRPAIAPRP, with 0.0527; and RRIRLRPPRLPRPRPRPWRHPRP, with -0.0415. Then RRIRDRPPRLPRPRPRPLSNPRP, with -0.247; and RRIRCRPPRLPRPRPRPHGRPRP, with 0.0979. Take RRIRVRPPRLPRPRPRPCEIPRP: the “shrunken log2 fold change” value was -0.0392.

Take RRIRHRPPRLPRPRPRPHNNPRP: the “shrunken log2 fold change” value was -0.714. To RRIRRRPPRLPRPRPRPSNQPRP belongs 0.00316; to RRIRMRPPRLPRPRPRPPTQPRP, 0.785; to RRIRSRPPRLPRPRPRPPTFPRP, -0.0599. Then RRIRKRPPRLPRPRPRPHSHPRP, with 0.179; and RRIRSRPPRLPRPRPRPTVIPRP, with -0.0891; and RRIRMRPPRLPRPRPRPFYSPRP, with -0.0137. Then RRIRPRPPRLPRPRPRPKCNPRP, with -0.125; and RRIRHRPPRLPRPRPRPFIIPRP, with -0.00662.

Take RRIRWRPPRLPRPRPRPMRVPRP: the “shrunken log2 fold change” value was 1.03. To RRIRWRPPRLPRPRPRPTRDPRP belongs 0.0468; to RRIRYRPPRLPRPRPRPKNWPRP, -0.3; to RRIRERPPRLPRPRPRPKCNPRP, 0.0249. To RRIRFRPPRLPRPRPRPNRNPRP belongs -0.836. Then RRIRRRPPRLPRPRPRPYWVPRP, with 0.0443; and RRIRTRPPRLPRPRPRPRWGPRP, with 0.164; and RRIRWRPPRLPRPRPRPHRVPRP, with -0.0781. RRIRARPPRLPRPRPRPQAAPRP: the “shrunken log2 fold change” value is 1.14.

For RRIRARPPRLPRPRPRPYQNPRP, the “shrunken log2 fold change” value was -0.559. Then RRIRMRPPRLPRPRPRPEPLPRP, with 0.277; and RRIRSRPPRLPRPRPRPRGNPRP, with 0.0829. On to RRIRNRPPRLPRPRPRPPQYPRP, for which the “shrunken log2 fold change” value is -0.0544.

On to RRIRMRPPRLPRPRPRPQQYPRP, for which the “shrunken log2 fold change” value was -0.017. To RRIRARPPRLPRPRPRPCIPPRP belongs 2.51; to RRIRLRPPRLPRPRPRPIRAPRP, 0.301. Then RRIRYRPPRLPRPRPRPKMMPRP, with -1.3; and RRIRVRPPRLPRPRPRPKQRPRP, with 0.157; and RRIRSRPPRLPRPRPRPLNGPRP, with -0.322.

On to RRIRCRPPRLPRPRPRPKNHPRP, for which the “shrunken log2 fold change” value is -0.461.

On to RRIRIRPPRLPRPRPRPKLHPRP, for which the “shrunken log2 fold change” value was -0.0109. Then RRIRQRPPRLPRPRPRPQRFPRP, with -0.0204; and RRIRCRPPRLPRPRPRPKNKPRP, with -0.244.

In the case of RRIRSRPPRLPRPRPRPNPQPRP, the “shrunken log2 fold change” value came out at 0.126. To RRIRVRPPRLPRPRPRPDKHPRP belongs -0.108; to RRIRWRPPRLPRPRPRPKQAPRP, 0.413. Then RRIRQRPPRLPRPRPRPFFQPRP, with -0.0889; and RRIRTRPPRLPRPRPRPYQIPRP, with -0.0573. To RRIRLRPPRLPRPRPRPHDGPRP belongs 0.0171; to RRIRFRPPRLPRPRPRPSNQPRP, 0.0631; to RRIRYRPPRLPRPRPRPNGNPRP, -0.561.

RRIRPRPPRLPRPRPRPECYPRP: the “shrunken log2 fold change” value was found to be 0.044. To RRIRERPPRLPRPRPRPNVQPRP belongs -0.403; to RRIRKRPPRLPRPRPRPLGTPRP, 0.388. For the sequence RRIRYRPPRLPRPRPRPPAYPRP, the “shrunken log2 fold change” value was -0.767.

Take RRIRGRPPRLPRPRPRPWCLPRP: the “shrunken log2 fold change” value is -0.262. Then RRIRMRPPRLPRPRPRPKGIPRP, with 0.0647. Then RRIRRRPPRLPRPRPRPSDYPRP, with -0.185. Then RRIRYRPPRLPRPRPRPKTIPRP, with -0.421; and RRIRYRPPRLPRPRPRPHMEPRP, with -0.249. In the case of RRIRNRPPRLPRPRPRPANNPRP, the “shrunken log2 fold change” value is -0.0944.
